Test results taken from US20250275560A1, “PROCESS OF MAKING GINGEROL COMPOUNDS AND THEIR USE AS FLAVOR MODIFIERS” (Firmenich SA, priority 2021, published 2025).

B1: SEQ ID NO: 1: KRED polypeptide isolated from Bacillus sp, 248 amino acids, expressed recombinantly in Escherichia coli (protein, listed as Bacillus sp.)
chain: MSGRVAVITGAGSGIGRETCLTFARKGEKVVVADINEEKGLETTELVKAEGGEAVFVNTDVSKFEEVEALVDQAVETYGSIDIMFNNAGIGKMGHVLSLNIEDYLHVIDVNQHGVAYGIIAAGRKMRDLDIKGVIINSASVFGYLANFGTFPYQASKGAVRMMTQNAALELSQYGIRVVGIAPGSVDTSIIQAYKDAGMTQKMKEQQMRKELIRPEAIANAVYLLTLEEADVINGSVVMLDDGYASFK
B2: SEQ ID NO: 3: KRED polypeptide isolated from Weizmannia coagulans, 248 amino acids, expressed recombinantly in Escherichia coli (protein)
chain: MSGRVAVITGAGSGIGWETSLTFARKGDSVVVADIDEEKGLETVELIKQEGGDAVFAKTDVSKFEEVESLVNQAVEIYGTIDVMFNNAGIGTLGHILSKKIEDYLRVIDVNQHGVAYGIIAAGRKMRELDVKGVIINTASVFGYLANFGTFPYQAAKGAVRMMTQNAALELAQYGIRVVGIAPGCVDTPIIQAYKDAGMTQKMTEQQMRKKLIRPEAIANAVYLLTLEEADAINGSVVMLDDGYASFK
modifications: Weizmannia coagulans
notes: KRED polypeptide isolated from Weizmannia coagulans, 248 amino acids, expressed recombinantly in Escherichia coli

Experiments:
[1] = Determination of the enzyme activities for ethyl-2-oxo-4-phenylbutyrate with enzyme lysate (NADH absorption decrease at 340 nm); type: biochemical; settings: enzyme lysate of recombinant RB791 cells, per wet cell mass; room temperature, pH 7.0, 0.3 mM NADH, 1 mM ethyl-2-oxo-4-phenylbutyrate; mean of at least three measurements
Protocol: Enzyme lysates (10% [w/v] and 20% [w/v] wet cell mass) were used to determine the enzyme activities. Enzyme lysates were prepared in TEA buffer (100 mM triethanolamine pH 7.0, 2 mM MgCl2). 0.1 g or 0.2 g wet cell mass was completely resuspended in 1 ml TEA buffer. The cells were disrupted in 2 ml reaction vessels by adding a 0.5 ml corresponding volume of glass beads at 24 Hz for 10 minutes in a vibrating mill (Retsch, MM200). The cell lysate was then sedimented in a tabletop centrifuge at 7500×g for 60 seconds. The cell-free supernatant, the enzyme lysate, was used immediately to determine the activity.
The activity was measured at room temperature in a reaction volume of 1 ml in a semi-micro cuvette (layer thickness 1 cm). The reaction mixture was composed as follows: 100 mM triethanolamine pH 7.0, 2 mM MgCl2, 0.3 mM NADH and 1 mM ethyl-2-oxo-4-phenylbutyrate (CAS No. 64920 29 2)
The reaction was started by adding 15 μL or 25 μL of enzyme lysate diluted in TEA buffer. The individual dilution was chosen for each enzyme lysate in such a way that a linear decrease in absorption at 340 nm could be recorded over a period of 30 seconds (UV-Vis spectrophotometer, Shimadzu). […] Each measurement was carried out at least three times and the mean values were determined. […] (SEQ ID NO: 1) or Weizmannia coagulans (SEQ ID NO: 3), respectively, enzyme activities of 1825 U/g and 71 U/g were determined.

[2] = Characterization of oxidoreductases with regard to reduction of [6]-gingerol to the (3R,5S)-alcohol (HPLC); type: biochemical; settings: recombinant E. coli enzyme suspension, NADH, 2-propanol, 25° C., 24 hours; for Ratio: 3S,5S/3R,5S (%) - 3R,5S share / Ratio: 3S,5S/3R,5S (%) - 3S,5S share: 2 mg [6]-gingerol; for Conversion (%): conversion of [6]-gingerol
Protocol: The oxidoreductases with the polypeptide sequences SEQ ID NO: 1 and SEQ ID NO: 3 were examined by the following method to determine the conversion rate and diasterioselectivity by reducing [6]-gingerol to the corresponding (3R, 5S)-alcohol:
Recombinant Escherichia coli cells which carry the genes of the oxidoreductases SEQ ID NO: 1 or SEQ ID NO: 3 were cultivated as described in Example 2. To produce an enzyme suspension, 1 g wet cells were completely resuspended with TEA buffer (100 mM triethanolamine pH 7.0, 2 mM MgCl2) in a total volume of 5 mL and then mixed until homogeneous by adding 5 mL glycerol solution (80% [v/v] in TEA buffer). In the reaction setup, 2 mg [6]-gingerol per […] of this enzyme suspension were added to 160 μL KPP buffer (100 mM potassium phosphate buffer, pH 7.5, 1 mM MgCl2), together with 0.0035 g NADH and 20 μL 2-propanol. After incubating the samples at 25° C. and 1200 rpm for 24 hours, the reaction solutions were extracted with 1 ml each of […] and centrifuged. 250 μL of the extract were removed and dried. Then 1 ml acetonitrile was added and analyzed by means of HPLC. A Luna PFP (2) column (150×3 mm) from Phenomenex (Germany) was used for detecting the conversion of [6]-gingerol and the diastereomers formed.

Molecule	enzyme activity [1]	Ratio: 3S,5S/3R,5S (%) - 3R,5S share [2]	Ratio: 3S,5S/3R,5S (%) - 3S,5S share [2]	Conversion (%) [2]
B1	1825 U/g	95.5%	4.5%	>71%
B2	71 U/g	98.6%	1.4%	>84%
